This assay concerns the target T1, wildtype NP of influenza A/NT/60/1968 (H3N2) virus (influenza A/NT/60/1968 (H3N2) virus, UniProt P03467 1-498).
T1 construct: not shown: GST, N-terminal, cleaved
Kind of assay: pull-down. The note with it: both partners purified.

B1: GST-tagged full-length human ANP32A (natural protein)
chain: MEMGRRIHLELRNRTPSDVKELVLDNSRSNEGKLEGLTDEFEELEFLSTINVGLTSIANLPKLNKLKKLELSDNRVSGGLEVLAEKCPNLTHLNLSGNKIKDLSTIEPLKKLENLKSLDLFNCEVTNLNDYRENVFKLLPQLTYLDGYDRDDKEAPDSDAEGYVEGLDDEEEDEDEEEYDEDAQVVEDEEDEDEEEEGEEEDVSGEEEEDEEGYNDGEVDDEEDEEELGEEERGQKRKREPEDEGEDDD
notes: also called GST-huANP32A; huANP32A WT; source: E. coli, purified (Glutathione Sepharose, eluted with reduced glutathione); not shown: GST, N-terminal, kept
In the case of B1, the binding result is on record as “binds”.

B2: GST-tagged full-length human ANP32B (natural protein)
chain: MDMKRRIHLELRNRTPAAVRELVLDNCKSNDGKIEGLTAEFVNLEFLSLINVGLISVSNLPKLPKLKKLELSENRIFGGLDMLAEKLPNLTHLNLSGNKLKDISTLEPLKKLECLKSLDLFNCEVTNLNDYRESVFKLLPQLTYLDGYDREDQEAPDSDAEVDGVDEEEEDEEGEDEEDEDDEDGEEEEFDEEDDEDEDVEGDEDDDEVSEEEEEFGLDEEDEDEDEDEEEEEGGKGEKRKRETDDEGEDD
notes: also called GST-huANP32B; huANP32B WT; source: E. coli, purified (Glutathione Sepharose, eluted with reduced glutathione); not shown: GST, N-terminal, kept
Regarding B2, the binding result is reported as “binds”.
